Numbering of substitutions follows the chain as printed. Names may count otherwise.
Key:
ΔEstEM = molecular target: T1, ΔEstEM (Sinorhizobium meliloti, UniProt Q92Y44); assay: […] min end-point 4-nitrophenol release, […] nm; type: biochemical; settings: 1.5 mM substrate
T1 construct: gene SMa1898; N-terminal His6 (pDEST17), E. coli BL21-AI

ΔEstO = molecular target: T2, ΔEstO (Pseudoalteromonas arctica, UniProt D6CHH1); assay: […] min end-point 4-nitrophenol release, […] nm; type: biochemical; settings: 1.5 mM substrate
T2 construct: gene estO; N-terminal His6 (pDEST17), E. coli BL21-AI
T2 sequence (D6CHH1 entry or part of it, stated change not applied): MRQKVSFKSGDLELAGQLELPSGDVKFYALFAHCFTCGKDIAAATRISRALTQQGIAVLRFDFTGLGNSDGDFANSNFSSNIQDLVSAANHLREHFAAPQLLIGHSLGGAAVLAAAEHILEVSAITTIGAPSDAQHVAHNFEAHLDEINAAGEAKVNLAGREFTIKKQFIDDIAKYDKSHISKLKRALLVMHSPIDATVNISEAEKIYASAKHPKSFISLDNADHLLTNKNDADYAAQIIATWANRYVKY

ΔEstRD = molecular target: T3, ΔEstRD (Roseobacter denitrificans, UniProt Q166H3); assay: […] min end-point 4-nitrophenol release, […] nm; type: biochemical; settings: 1.5 mM substrate
T3 construct: gene RD1_2563; C-terminal His6 (pEXP5-CT), E. coli BL21-AI
T3 sequence (Q166H3 entry or part of it, stated change not applied): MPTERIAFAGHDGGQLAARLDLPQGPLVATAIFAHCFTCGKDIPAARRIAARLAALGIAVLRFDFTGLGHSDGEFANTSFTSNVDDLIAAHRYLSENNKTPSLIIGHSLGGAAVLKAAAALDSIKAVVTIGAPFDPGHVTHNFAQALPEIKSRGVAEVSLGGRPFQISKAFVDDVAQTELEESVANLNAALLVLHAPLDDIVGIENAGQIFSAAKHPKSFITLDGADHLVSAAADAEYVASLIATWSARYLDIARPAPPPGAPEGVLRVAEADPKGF

ΔEstLA = molecular target: T4, ΔEstLA (Roseibium aggregatum, UniProt A0NLQ8); assay: […] min end-point 4-nitrophenol release, […] nm; type: biochemical; settings: 1.5 mM substrate, gum arabic, universal buffer pH 5-11, 30 °C, or Tris-HCl pH 8.5, 5-50 °C
T4 construct: gene SIAM614_09253; N-terminal His6 (pDEST17), E. coli BL21-AI
T4 sequence (A0NLQ8 1-266): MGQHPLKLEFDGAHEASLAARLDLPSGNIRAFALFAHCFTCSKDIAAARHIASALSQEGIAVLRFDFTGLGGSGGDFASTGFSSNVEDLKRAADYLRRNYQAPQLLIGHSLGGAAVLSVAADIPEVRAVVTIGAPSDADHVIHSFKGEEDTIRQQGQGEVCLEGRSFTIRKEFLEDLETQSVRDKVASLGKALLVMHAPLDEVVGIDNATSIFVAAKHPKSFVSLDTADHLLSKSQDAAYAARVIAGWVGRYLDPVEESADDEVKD

ΔEstCA = molecular target: T5, ΔEstCA (Catenulispora acidiphila, UniProt C7Q579); assay: […] min end-point 4-nitrophenol release, […] nm; type: biochemical; settings: 1.5 mM substrate, gum arabic, universal buffer pH 5-11, 30 °C, or Tris-HCl pH 8.5, 5-50 °C
T5 construct: gene Caci_7018; C-terminal His6 (pEXP5-CT), E. coli BL21-AI
T5 sequence (C7Q579 1-255): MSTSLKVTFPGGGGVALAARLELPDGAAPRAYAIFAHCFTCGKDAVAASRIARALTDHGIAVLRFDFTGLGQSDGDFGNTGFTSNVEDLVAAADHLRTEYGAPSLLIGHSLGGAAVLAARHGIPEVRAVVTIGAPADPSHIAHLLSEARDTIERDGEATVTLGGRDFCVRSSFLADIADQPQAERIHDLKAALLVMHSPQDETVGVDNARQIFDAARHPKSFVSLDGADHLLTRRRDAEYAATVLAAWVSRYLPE

ΔEstCAL = molecular target: T6, ΔEstCAL (Cellulophaga algicola, UniProt E6X8P4); assay: […] min end-point 4-nitrophenol release, […] nm; type: biochemical; settings: 1.5 mM substrate, gum arabic, universal buffer pH 5-11, 30 °C, or Tris-HCl pH 8.5, 5-50 °C
T6 construct: gene Celal_0286; C-terminal His6 (pEXP5-CT), E. coli BL21-AI
T6 sequence (E6X8P4 entry or part of it, stated change not applied): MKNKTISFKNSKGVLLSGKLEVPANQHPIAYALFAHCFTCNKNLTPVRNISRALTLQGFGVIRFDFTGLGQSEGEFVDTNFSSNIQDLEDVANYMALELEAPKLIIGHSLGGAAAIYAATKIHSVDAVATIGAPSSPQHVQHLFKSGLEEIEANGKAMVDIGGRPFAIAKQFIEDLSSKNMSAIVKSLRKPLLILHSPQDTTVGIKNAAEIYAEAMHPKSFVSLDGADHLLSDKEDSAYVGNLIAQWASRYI

purified protein [1] = substrate: O=C(Oc1ccc([N+](=O)[O-])cc1)c1ccccc1; assay: purified protein; type: biochemical, Rhodothermus marinus; settings: 25 mM Tris-HCl pH 8.5, 5% acetonitrile, 0.5% Triton X-100
purified protein [2] = substrate: CCCC(=O)Oc1ccc([N+](=O)[O-])cc1; assay: purified protein; type: biochemical, Rhodothermus marinus; settings: 25 mM Tris-HCl pH 8.5, 5% acetonitrile, 0.5% Triton X-100
purified protein [3] = substrate: CCCCCCCC(=O)Oc1ccc([N+](=O)[O-])cc1; assay: purified protein; type: biochemical, Rhodothermus marinus; settings: 25 mM Tris-HCl pH 8.5, 5% acetonitrile, 0.5% Triton X-100
purified protein [4] = substrate: CC(=O)Oc1ccc([N+](=O)[O-])cc1; assay: purified protein; type: biochemical, Rhodothermus marinus; settings: 25 mM Tris-HCl pH 8.5, 5% acetonitrile, 0.5% Triton X-100
purified protein [5] = substrate: CCCCCCCCCC(=O)Oc1ccc([N+](=O)[O-])cc1; assay: purified protein; type: biochemical, Rhodothermus marinus; settings: 25 mM Tris-HCl pH 8.5, 5% acetonitrile, 0.5% Triton X-100
purified protein [6] = substrate: CCCCCCCCCCCC(=O)Oc1ccc([N+](=O)[O-])cc1; assay: purified protein; type: biochemical, Rhodothermus marinus; settings: 25 mM Tris-HCl pH 8.5, 5% acetonitrile, 0.5% Triton X-100
[7] = gum arabic, universal buffer pH 5-11, 30 °C, or Tris-HCl pH 8.5, 5-50 °C

T1 sequence (Q92Y44 entry or part of it, stated change not applied): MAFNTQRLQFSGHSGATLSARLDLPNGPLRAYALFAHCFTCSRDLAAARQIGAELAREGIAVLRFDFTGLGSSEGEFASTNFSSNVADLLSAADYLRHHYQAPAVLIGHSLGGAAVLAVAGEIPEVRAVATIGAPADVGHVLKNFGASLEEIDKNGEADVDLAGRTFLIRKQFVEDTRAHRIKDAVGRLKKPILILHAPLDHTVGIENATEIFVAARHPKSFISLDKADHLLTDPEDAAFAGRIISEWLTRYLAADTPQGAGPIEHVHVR

**Q.** What does the source list for `CCCCCCCCCC(=O)Oc1ccc([N+](=O)[O-])cc1` [4NP-decanoate]?
**A.** 30 min end-point 4-nitrophenol release, 410 nm (ΔEstEM; Tris-HCl pH 8.5): ΔEstEM, ΔEstRD, and ΔEstO showed a preference for decanoate (C10); 30 min end-point 4-nitrophenol release, 410 nm (ΔEstO; Tris-HCl pH 8.5): ΔEstEM, ΔEstRD, and ΔEstO showed a preference for decanoate (C10); 30 min end-point 4-nitrophenol release, 410 nm (ΔEstRD; Tris-HCl pH 8.5): ΔEstEM, ΔEstRD, and ΔEstO showed a preference for decanoate (C10)

**Q.** Which “30 min end-point 4-nitrophenol release, 410 nm” value (ΔEstLA) does the source give for `O=C(Oc1ccc([N+](=O)[O-])cc1)c1ccccc1` [4NP-benzoate] here?
**A.** The value was “optimum temperature and pH profiles of each enzyme using p-nitrophenyl benzoate as a substrate”.

**Q.** What about the “30 min end-point 4-nitrophenol release, 410 nm” value (ΔEstCA) of the same molecule?
**A.** The value was “optimum temperature and pH profiles of each enzyme using p-nitrophenyl benzoate as a substrate”.

**Q.** And the “30 min end-point 4-nitrophenol release, 410 nm” value (ΔEstEM; [7])?
**A.** Its value is “optimum temperature and pH profiles of each enzyme using p-nitrophenyl benzoate as a substrate”.

**Q.** And the “30 min end-point 4-nitrophenol release, 410 nm” value (ΔEstO; [7])?
**A.** Its value is “optimum temperature and pH profiles of each enzyme using p-nitrophenyl benzoate as a substrate”.

**Q.** What about the “30 min end-point 4-nitrophenol release, 410 nm” value (ΔEstCAL) of the same molecule?
**A.** Its value is “optimum temperature and pH profiles of each enzyme using p-nitrophenyl benzoate as a substrate”.

**Q.** What about the “30 min end-point 4-nitrophenol release, 410 nm” value (ΔEstRD; [7]) of the same molecule?
**A.** Its value is “optimum temperature and pH profiles of each enzyme using p-nitrophenyl benzoate as a substrate”.

B1: EstRM (Rhodothermus marinus DSM 4252) (protein)
chain: MQIKTVTFENNRGERLAARLDLPVDTQPVAYALFAHCFTCSKNLKAVTTISRALTTQGYAVLRFDFTGLGESEGDFSETTFATNFEDLRAACRFLSAQYEPPALLIGHSLGGAAVLAVAGEFPEVKAVATIGAPCDPAHVRHLLRPALDTIKTVGEAVVDLGGRPFRIKKQFLEELERVNLEDQVRTMRRPLLLFHSPTDQIVGIENAACLFQAARHPKSFVSLDQADHLLSNSDDAAFVGEVLGAWARRYVGRRPVPDTYRLDPGEARAVVRTGRAHYRTDIAADGHALVADEPAPLGGTDAGPSPYGYLAAALGACTTITLRLYADRKGWPLEAATAYIYHEKVHLNDCTECAEQGIEQTPGGKIDRFTVELTLEGALDAAQRQRLLEIAGRCPVHRTLKSPVVTRTRLRD
notes: full length, 410 residues, His6 tag, E. coli BL21-AI; monomer
**Q.** What does the source list for B1?
**A.** Km (purified protein [1]): 292 ± 31 µM; Km (purified protein [2]): 962 ± 140 µM; Km (purified protein [3]): 309 ± 70 µM

B2: ΔEstRM (Rhodothermus marinus DSM 4252; S72A) (protein)
chain: MQIKTVTFENNRGERLAARLDLPVDTQPVAYALFAHCFTCSKNLKAVTTISRALTTQGYAVLRFDFTGLGEAEGDFSETTFATNFEDLRAACRFLSAQYEPPALLIGHSLGGAAVLAVAGEFPEVKAVATIGAPCDPAHVRHLLRPALDTIKTVGEAVVDLGGRPFRIKKQFLEELERVNLEDQVRTMRRPLLLFHSPTDQIVGIENAACLFQAARHPKSFVSLDQADHLLSNSDDAAFVGEVLGAWARRYVGRR
notes: esterase domain, residues 1-255 of 410, OsmC domain removed; N-terminal His6 (pDEST17, E. coli BL21-AI; crystal text says C-terminal His6); monomer
**Q.** With B2 as the molecule, how does the Km (purified protein [2]) read?
**A.** The Km was 1050 ± 210 µM.

**Q.** What about the Km (purified protein [3]) of the same molecule?
**A.** The Km was 660 ± 60 µM.

B3: ΔEstRM (Rhodothermus marinus DSM 4252) (protein)
chain: B2 chain with A72S
notes: as for B2
**Q.** Which Km (purified protein [1]) does the source give for B3 here?
**A.** The Km was 244 ± 12 µM.

**Q.** What about the Km (purified protein [4]) of the same molecule?
**A.** Its Km is 3540 ± 800 µM.

**Q.** And the Km (purified protein [2])?
**A.** Its Km is 1070 ± 170 µM.

**Q.** What about the Km (purified protein [3]) of the same molecule?
**A.** Its Km is 490 ± 48 µM.

**Q.** And the Km (purified protein [5])?
**A.** The Km was 825 ± 130 µM.

**Q.** And the Km (purified protein [6])?
**A.** Its Km is 981 ± 150 µM.
